According to PMC10471779 (2023):
Positions count from the first letter of the chain named. Each block holds one binder with its values, some of them ahead of it.

Tests used:
Test in all cases: SPR
[1] = biological target: recombinant cynomolgus galectin-3 (cynomolgus)
[2] = biological target: T1, recombinant rat galectin-3 (rat, UniProt P08699 1-262)
T1 chain: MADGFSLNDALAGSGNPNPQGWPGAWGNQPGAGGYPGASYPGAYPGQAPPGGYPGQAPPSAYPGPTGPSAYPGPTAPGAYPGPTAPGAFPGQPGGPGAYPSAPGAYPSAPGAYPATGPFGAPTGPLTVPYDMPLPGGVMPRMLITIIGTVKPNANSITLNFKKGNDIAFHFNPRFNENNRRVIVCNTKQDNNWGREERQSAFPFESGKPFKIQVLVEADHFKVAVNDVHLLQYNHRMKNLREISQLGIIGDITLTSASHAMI

[3] = biological target: T2, recombinant mouse galectin-3, full length, His-tagged (mGal-3-FL-His Nter) (mouse, UniProt P16110 1-264)
T2 chain: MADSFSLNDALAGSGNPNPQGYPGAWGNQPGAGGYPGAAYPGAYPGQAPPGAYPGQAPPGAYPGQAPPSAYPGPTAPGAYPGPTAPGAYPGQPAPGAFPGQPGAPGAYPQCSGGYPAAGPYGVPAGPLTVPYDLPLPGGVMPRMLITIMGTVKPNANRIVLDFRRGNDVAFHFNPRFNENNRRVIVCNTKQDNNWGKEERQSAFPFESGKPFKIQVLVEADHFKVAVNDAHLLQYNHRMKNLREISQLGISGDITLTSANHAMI

Kd [1]: 11.4 nM
Kd [2]: 8.6 nM
B1: D11 anti-Gal-3 monoclonal antibody (hIgG1 format, LALA) (antibody, V domains shown)
VH: EVQLVESGGSLVKPGGSLRLSCAASGFTFSNYNMNWVRQAPGKGLEWISSIYGSSRYIYYADFVKGRFTISRDNAKNSLYLQMNSLRAEDTAVYYCVRSSYGGMDVWGRGTLVTVSS
VL: QSVLTQPASVSGSPGQSITISCAGTSSDVGGSYNVAWYQQHPGKAPKLMIYYDSYRPSGVSNRFSGSKSGNTASLTISGLQAEDEADYYCSSYTGYSTRVFGGGTKLEIK

Kd [1]: 7.1 nM
Kd [3]: 4.1 nM
B2: E07 anti-Gal-3 monoclonal antibody (hIgG1 format, LALA) (antibody, V domains shown)
VH: B1 VH with S50N, S100Y
VL: B1 VL with S32Y, N34S, A36S, Y55N
